From patent US20240124556A1, “KERATIN BD-3, PREPARATION METHOD THEREFOR AND PHARMACEUTICAL COMPOSITION AND USE THEREOF” (INSTITUTE OF MATERIA MEDICA, CHINESE ACADEMY OF MEDICAL …, priority 2019, published 2024)

Assays:
[1] = test system: PTZ-induced epilepsy in mice; assay: Pentylenetetrazole (PTZ)-induced epilepsy in mice; type: in vivo, ICR mice; conditions: for mortality rate / Grade IV seizure rate / Cases of Grade IV / Cases of deaths: PTZ 65 mg/kg i.p.; for mortality rate: model group 10%; for Grade IV seizure rate: model group 90%; for Cases of Grade IV / Cases of deaths: of 10 mice; for Cases of Grade IV: 15 min observation, model group 9; for Cases of deaths: model group 1; for Grade IV seizure incubation period / Grade III seizure incubation period: mean ± SEM; for Grade IV seizure incubation period: maximum recorded 900 seconds, model group 185 ± 84; for Grade III seizure incubation period: model group 63 ± 6
Description: • Animals: male ICR mice; • Medicines: Pentylenetetrazol (PTZ), Retigabine, Protein BD-3. • Experiment grouping: • Model group; • Retigabine 60 mg/kg group; • Protein BD-3, 50 mg/kg group, 200 mg/kg group;
The drug was administered once in the afternoon the day before modeling, On the day of modeling, PTZ-65 mg/kg (modeling agent) was injected intraperitoneal 1 hour after the test drug was administered intragastrically, and the positive drug can be administered once half an hour before modeling. Continue to observe for 15 minutes after injection of PTZ.
Observation index: (1)Seizure situation: the time of seizures from Grade III to Grade VI; (2)Death situation
Seizure grade: Refer to Racine grading standard: Grade 0: No response; Grade I: manifested as twitching of facial muscles or the corners of the mouth; Grade II: can nod; Grade III: twitching of one limb; Grade IV: rigidity or body twitching; Grade V: generalized epilepsy (generalized tonic seizures).
Count the cases of seizures and deaths in each group of mice in the experiment; Grade III and IV incubation period. The incubation period of mice that have not attacked to Grade IV is recorded as the maximum of 900 seconds. Chi-square test was used for statistics of the number of cases. Calculate the mean and standard error of the incubation period. Use TTEST to compare the model group with other groups, and P<0.05 is considered as a significant difference.

[2] = test system: acetic acid writhing in ICR mice; assay: Acetic acid writhing in ICR mice; type: in vivo; conditions: for Writhing incubation period: 0.6% acetic acid i.p., model group 204.2 ± 19.6; for Frequency of writhing: within 15 minutes, model group 33.3 ± 2.5
Description: • Animals: male ICR mice; • Drugs and reagents: aspirin, physiological saline, glacial acetic acid, protein BD-3. • Experiment grouping: • Model group; • Aspirin 300 mg/kg group; • Protein BD-3, 50 mg/kg group, 200 mg/kg group.
One day after the experimental animals adapt to the environment, Aspirin 300 mg/kg, protein BD-3 50 mg/kg, 200 mg/kg were given orally one hour in advance, and the administration volume was 10 ml/kg; Then, 0.6% acetic acid solution was injected intraperitoneally, and the incubation period (seconds) and frequency of writhing in the animal was observed within 15 minutes.
Calculate the mean and standard error of the data in each group. Compared with the model group by TTEST, P<0.05 was considered as statistically different.

[3] = test system: lipopolysaccharide (LPS) induced fever model in SD rats; assay: Lipopolysaccharide (LPS) induced fever in SD rats; type: in vivo; conditions: for Body temperature 2 hours after modeling / Body temperature 4 hours after modeling / Body temperature 6 hours after modeling / Body temperature 8 hours after modeling: LPS 20 μg/kg i.p.; for Body temperature 2 hours after modeling: model group 37.6 ± 0.1; for Body temperature 4 hours after modeling: model group 37.8 ± 0.1; for Body temperature 6 hours after modeling / Body temperature 8 hours after modeling: model group 37.8 ± 0.2
Description: • Animals: 230-260 grams of male SD rats; • Drugs: lipopolysaccharide (LPS, SIGMA L-2880), aspirin (SIGMA A2093), protein BD-3; Instruments: electronic balance (SARTORIUS BP121S type), electronic clinical thermometer (CITIZEN CT-513W type). • Experiment grouping: • Normal control group; • Model group: lipopolysaccharide fever model; • Positive control group: Aspirin 300 mg/kg group; • Protein BD-3, 10 mg/kg group, 50 mg/kg group. • Method: the method of intraperitoneal injection of Lipopolysaccharide to replicate rat fever model.
Preparation of experimental animals: After the experimental animals adapt to the experimental environment (temperature 22° C.±2° C., relative humidity 50%±2%) for 1 day. Pre-adaptation to measure rectal temperature at 8:00 and 15:00, rats were fasted and water was taken freely 12 h before experiment, and let the animal to empty its feces before measuring the rectal temperature. Apply petroleum jelly to the electronic thermometer probe before each temperature measurement. Insert the rat rectum 2 cm (can be marked at 2 cm to ensure that the depth of each insertion is consistent), and record the body temperature after the reading is stable.
Intraperitoneal injection of lipopolysaccharide to replicate rat fever model: The body temperature of the rats was measured before modeling. Qualified rats with a body temperature of 36.2-37.3° C. were selected and randomly divided into groups with 8 rats in each group. After oral administration of aspirin and different doses of protein BD-3, lipopolysaccharide (20 μg/kg, 2 ml/kg) was injected intraperitoneally immediately, and the normal control group was injected intraperitoneally with an equal volume of normal saline. The body temperatures of the rats were monitored after 2 hours for a total of 8 hours.
According to the body temperature measured at each time point on the day of the experiment, calculate the mean, standard deviation and standard error of the body temperature of each group of rats. The data of each group was compared with TTEST, and P<0.05 was considered as a significant difference.

[4] = test system: cough induced by ammonia water in mice; assay: Antitussive test, cough induced by ammonia water in mice; type: in vivo, ICR mice; conditions: for Incubation period (cough) / Number of coughs: X ± SEM; for Incubation period (cough): solvent control 26.9 ± 2.3; for Number of coughs: within 2 minutes, solvent control 67.1 ± 5.7
Description: • Animals: male ICR mice; • Drugs and reagents: dextromethorphan hydrobromide, ammonia water, 0.2% CMC-Na, protein BD-3; • Apparatus: Compressed nebulizer (403T type), balance (XS105DU type). • Experiment grouping: • Solvent control group; • Dextromethorphan 15 mg/kg group; • Protein BD-3, 20 mg/kg group, 50 mg/kg group.
Dextromethorphan and different doses of protein BD-3 (administration volume 10 ml/kg) were given orally in groups, and the solvent control group was given the same volume of distilled water. One hour later, mice were put into a sealed box and atomized 10% ammonia water for 10 seconds, and then observed and recorded the incubation period of cough in mice and the number of coughs in 2 minutes.
Record the time point of oral administration, the time point of atomization experiment, the incubation period of mice cough and the number of coughs within 2 minutes, respectively. The incubation period of cough refers to the number of seconds from the start of the atomization of ammonia to the occurrence of cough. The performance of coughing in mice is based on contraction of their abdominal muscles (breast contraction) and opening their mouths at the same time. Calculate the mean and standard error of each group of data, and use TTEST to compare the model group with other groups, and P<0.05 is considered as a significant difference.

[5] = summary statement, no dose given

B1: BD-3: recombinant keratin, amino acid sequence SEQ ID NO:1, expressed in E. coli, band around 43 kD; tested material prepared in Example 4 (protein, listed as Bos taurus)
chain: MSYSCCLPNLSFRSSCSSRPCVPSSCCGTTLPGACNIPANVGSCNWFCEGSFNGSEKETMQFLNDRLASYLEKVRQLERDNAELESRILERSQQKILANKAENARLVVQIDNAKLAADDFRTKYQTELGLRQLVESDINGLRRILDELTLCKSDLEAQVESLKEELICLKQNHEQEVNTLRSQLGDRLNVEVDAAPTVDLNRVLNETRAQYEALVETNRRDVEEWYIRQTEELNKQVVSSSEQLQSYQAEIIELRRTVNALEVELQAQHNLRDSLENTLTETEARYSCQLAQVQGLIGNVESQLAEIRSDLERQNQEYQVLLDVRARLECEINTYRGLLDSEDCKLPCNPCATTNASSVGSCVTNPCTPCGPRSRFGPCNTFGC
- mortality rate ([1]; BD-3 50 mg/kg intragastric): 10%
- Grade IV seizure rate ([1]; BD-3 50 mg/kg intragastric): 100%
- Cases of Grade IV ([1]; BD-3 50 mg/kg intragastric): 10
- Cases of deaths ([1]; BD-3 50 mg/kg intragastric): 1
- Grade IV seizure incubation period ([1]; BD-3 50 mg/kg): 162 ± 58 s
- Grade III seizure incubation period ([1]; BD-3 50 mg/kg): 75 ± 6 s
- Epilepsy Grade III incubation period vs model group (in words) ([1]; BD-3 200 mg/kg): has a tendency to extend the incubation period, but there is no statistical difference compared with the model group
- mortality rate ([1]; BD-3 200 mg/kg intragastric): 0%
- Grade IV seizure rate ([1]; BD-3 200 mg/kg intragastric): 70%
- Cases of Grade IV ([1]; BD-3 200 mg/kg intragastric): 7
- Cases of deaths ([1]; BD-3 200 mg/kg intragastric): 0
- Grade IV seizure incubation period ([1]; BD-3 200 mg/kg): 327 ± 125 s
- Grade III seizure incubation period ([1]; BD-3 200 mg/kg): 62 ± 5 s
- Writhing incubation period ([2]; BD-3 50 mg/kg oral): 221.5 ± 28.4 s
- Frequency of writhing ([2]; BD-3 50 mg/kg oral): 24.7 ± 3.0 times
- Times of writhing vs model group (in words) ([2]; BD-3 50 mg/kg, P<0.05): can significantly reduce the times of writhing in mice
- Writhing incubation period ([2]; BD-3 200 mg/kg oral): 189.8 ± 10.4 s
- Frequency of writhing ([2]; BD-3 200 mg/kg oral): 29.5 ± 4.7 times
- Summary: analgesic effect, writhing (in words) [2, 5]: can significantly reduce the number of writhing times in mice
- Body temperature 2 hours after modeling ([3]; BD-3 10 mg/kg oral): 37.6 ± 0.1 °C
- Body temperature 4 hours after modeling ([3]; BD-3 10 mg/kg oral): 37.9 ± 0.2 °C
- Body temperature 6 hours after modeling ([3]; BD-3 10 mg/kg oral): 37.9 ± 0.2 °C
- Body temperature 8 hours after modeling ([3]; BD-3 10 mg/kg oral): 37.6 ± 0.2 °C
- Body temperature 2 hours after modeling ([3]; BD-3 50 mg/kg oral): 37.2 ± 0.2 °C
- Body temperature 4 hours after modeling ([3]; BD-3 50 mg/kg oral): 37.3 ± 0.2 °C
- Body temperature 6 hours after modeling ([3]; BD-3 50 mg/kg oral): 37.7 ± 0.3 °C
- Body temperature 8 hours after modeling ([3]; BD-3 50 mg/kg oral): 37.6 ± 0.2 °C
- Effect on body temperature of model rats (in words) ([3]; BD-3 50 mg/kg, at 2 hours and 4 hours after modeling, P<0.05 vs model group): can reduce the body temperature of model rats
- Summary: antipyretic effect in LPS fever model (in words) [3, 5]: has a significant effect of reducing body temperature rise at 2 hours and 4 hours after modeling
- Incubation period (cough) ([4]; BD-3 20 mg/kg oral): 31.6 ± 3.3 s
- Number of coughs ([4]; BD-3 20 mg/kg oral): 46.7 ± 4.1
- Number of coughs vs solvent control (in words) ([4]; BD-3 20 mg/kg, P<0.05): significant improvement in the number of coughs
- Incubation period (cough) ([4]; BD-3 50 mg/kg oral): 34.2 ± 2.1 s
- Number of coughs ([4]; BD-3 50 mg/kg oral): 53.6 ± 3.7
- Cough incubation period vs solvent control (in words) ([4]; BD-3 50 mg/kg, P<0.05): significant improvement in the incubation period
- Summary: antitussive effect (in words) [4, 5]: can significantly extend the incubation period, significantly reduce the number of coughs
